B1: Phosphatidylinositol 4,5-bisphosphate 3-kinase catalytic subunit delta isoform (Homo sapiens), O00329 (parent)
chain: MPPGVDCPMEFWTKEENQSVVVDFLLPTGVYLNFPVSRNANLSTIKQLLWHRAQYEPLFHMLSGPEAYVFTCINQTAEQQELEDEQRRLCDVQPFLPVLRLVAREGDRVKKLINSQISLLIGKGLHEFDSLCDPEVNDFRAKMCQFCEEAAARRQQLGWEAWLQYSFPLQLEPSAQTWGPGTLRLPNRALLVNVKFEGSEESFTFQVSTKDVPLALMACALRKKATVFRQPLVEQPEDYTLQVNGRHEYLYGSYPLCQFQYICSCLHSGLTPHLTMVHSSSILAMRDEQSNPAPQVQKPRAKPPPIPAKKPSSVSLWSLEQPFRIELIQGSKVNADERMKLVVQAGLFHGNEMLCKTVSSSEVSVCSEPVWKQRLEFDINICDLPRMARLCFALYAVIEKAKKARSTKKKSKKADCPIAWANLMLFDYKDQLKTGERCLYMWPSVPDEKGELLNPTGTVRSNPNTDSAAALLICLPEVAPHPVYYPALEKILELGRHSECVHVTEEEQLQLREILERRGSGELYEHEKDLVWKLRHEVQEHFPEALARLLLVTKWNKHEDVAQMLYLLCSWPELPVLSALELLDFSFPDCHVGSFAIKSLRKLTDDELFQYLLQLVQVLKYESYLDCELTKFLLDRALANRKIGHFLFWHLRSEMHVPSVALRFGLILEAYCRGSTHHMKVLMKQGEALSKLKALNDFVKLSSQKTPKPQTKELMHLCMRQEAYLEALSHLQSPLDPSTLLAEVCVEQCTFMDSKMKPLWIMYSNEEAGSGGSVGIIFKNGDDLRQDMLTLQMIQLMDVLWKQEGLDLRMTPYGCLPTGDRTGLIEVVLRSDTIANIQLNKSNMAATAAFNKDALLNWLKSKNPGEALDRAIEEFTLSCAGYCVATYVLGIGDRHSDNIMIRESGQLFHIDFGHFLGNFKTKFGINRERVPFILTYDFVHVIQQGKTNNSEKFERFRGYCERAYTILRRHGLLFLHLFALMRAAGLPELSCSKDIQYLKDSLALGKTEEEALKHFRVKFNEALRESWKTKVNWLAHNVSKDNRQ

Variants of: B1
Conditions: with p85a_human PIK3R1, P27986
Sequence of p85a_human PIK3R1, P27986 (P27986 whole entry): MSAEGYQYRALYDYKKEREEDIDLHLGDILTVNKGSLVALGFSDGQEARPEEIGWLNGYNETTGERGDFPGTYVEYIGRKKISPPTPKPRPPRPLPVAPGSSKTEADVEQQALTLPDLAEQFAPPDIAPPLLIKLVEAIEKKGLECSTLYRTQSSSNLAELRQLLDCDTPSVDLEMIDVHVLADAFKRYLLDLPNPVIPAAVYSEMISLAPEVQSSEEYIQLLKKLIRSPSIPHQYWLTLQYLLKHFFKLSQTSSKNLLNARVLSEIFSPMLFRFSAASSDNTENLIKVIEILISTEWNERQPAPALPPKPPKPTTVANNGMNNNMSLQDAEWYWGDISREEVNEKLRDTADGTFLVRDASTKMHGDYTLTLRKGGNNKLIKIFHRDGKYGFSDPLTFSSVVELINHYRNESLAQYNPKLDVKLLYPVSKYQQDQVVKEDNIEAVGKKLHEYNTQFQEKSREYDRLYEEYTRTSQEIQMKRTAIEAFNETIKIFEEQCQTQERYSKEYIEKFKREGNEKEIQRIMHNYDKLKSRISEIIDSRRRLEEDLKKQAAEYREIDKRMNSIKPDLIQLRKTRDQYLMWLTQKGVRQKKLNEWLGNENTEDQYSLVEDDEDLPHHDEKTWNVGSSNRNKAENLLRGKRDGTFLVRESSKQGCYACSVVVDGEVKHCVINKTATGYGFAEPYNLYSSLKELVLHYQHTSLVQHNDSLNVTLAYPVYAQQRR

effect of a mutation on the interaction | Variant
with no effect | E1021K
with no effect | E525K

Reference: IntAct's records for PubMed 24165795
